Measured values: patent US20150344570A1 (published 2015)

B1: GpH7-A5/GpH7-B3 variant Q295_10E/GpL16-k0 (antibody, human IgG1, kappa)
heavy 1: not shown
heavy 2: not shown
light: DIVMTQSPLSLPVTPGEPASISCQASESLVHSNRNTYLHWYLQKPGQSPQLLIYKVSNRFSGVPDRFSGSGSGTDFTLKISRVEAEDVGVYYCSQNTHVPPTFGQGTKVEIERTVAAPSVFIFPPSDEQLKSGTASVVCLLNNFYPREAKVQWKVDNALQSGNSQESVTEQDSKDSTYSLSSTLTLSKADYEKHKVYACEVTHQGLSSPVTKSFNRGEC
notes: also called He Ab Q295_10E
B2: GpH7-B3 variant A330_09D/GpL16-k0 (antibody, human IgG1, kappa)
heavy: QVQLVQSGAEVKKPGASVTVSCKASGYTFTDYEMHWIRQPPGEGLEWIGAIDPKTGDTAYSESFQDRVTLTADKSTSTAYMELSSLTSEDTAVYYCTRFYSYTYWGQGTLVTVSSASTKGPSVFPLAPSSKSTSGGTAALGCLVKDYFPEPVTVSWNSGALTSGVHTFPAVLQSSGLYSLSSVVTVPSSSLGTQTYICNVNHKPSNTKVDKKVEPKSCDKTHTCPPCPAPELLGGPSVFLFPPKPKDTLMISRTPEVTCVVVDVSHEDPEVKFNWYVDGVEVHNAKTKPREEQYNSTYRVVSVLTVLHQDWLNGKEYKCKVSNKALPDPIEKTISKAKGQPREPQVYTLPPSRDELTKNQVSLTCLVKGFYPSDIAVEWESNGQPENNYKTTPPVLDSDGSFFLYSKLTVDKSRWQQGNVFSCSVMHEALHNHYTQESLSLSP
light: B1 light
notes: also called Ho Ab A330_09D
B3: GpH7-A5/GpH7-B3 variant K334_09D/GpL16-k0 (antibody, human IgG1, kappa)
heavy 1: not shown
heavy 2: not shown
light: B1 light
notes: also called He Ab K334_09D
B4: GpH7-A5/GpH7-B3 variant T335_10E/GpL16-k0 (antibody, human IgG1, kappa)
heavy 1: not shown
heavy 2: not shown
light: B1 light
notes: also called He Ab T335_10E
B5: GpH7-B3 variant E269_16H/GpL16-k0 (antibody, human IgG1, kappa)
heavy: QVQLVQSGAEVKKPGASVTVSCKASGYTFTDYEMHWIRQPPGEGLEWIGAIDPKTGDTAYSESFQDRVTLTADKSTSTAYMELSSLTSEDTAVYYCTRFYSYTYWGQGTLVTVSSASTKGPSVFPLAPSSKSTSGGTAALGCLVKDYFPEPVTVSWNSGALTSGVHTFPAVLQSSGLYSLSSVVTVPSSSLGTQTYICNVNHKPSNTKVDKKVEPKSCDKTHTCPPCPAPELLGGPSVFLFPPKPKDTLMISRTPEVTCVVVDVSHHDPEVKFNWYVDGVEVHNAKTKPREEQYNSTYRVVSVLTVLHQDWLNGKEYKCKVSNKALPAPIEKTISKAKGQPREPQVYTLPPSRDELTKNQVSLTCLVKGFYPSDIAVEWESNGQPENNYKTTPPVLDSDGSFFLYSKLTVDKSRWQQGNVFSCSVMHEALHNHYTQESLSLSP
light: B1 light
notes: also called Ho Ab E269_16H
B6: GpH7-A5/GpH7-B3 variant K334_13S/GpL16-k0 (antibody, human IgG1, kappa)
heavy 1: not shown
heavy 2: not shown
light: B1 light
notes: also called He Ab K334_13S
B7: GpH7-B3 variant E269_20W/GpL16-k0 (antibody, human IgG1, kappa)
heavy: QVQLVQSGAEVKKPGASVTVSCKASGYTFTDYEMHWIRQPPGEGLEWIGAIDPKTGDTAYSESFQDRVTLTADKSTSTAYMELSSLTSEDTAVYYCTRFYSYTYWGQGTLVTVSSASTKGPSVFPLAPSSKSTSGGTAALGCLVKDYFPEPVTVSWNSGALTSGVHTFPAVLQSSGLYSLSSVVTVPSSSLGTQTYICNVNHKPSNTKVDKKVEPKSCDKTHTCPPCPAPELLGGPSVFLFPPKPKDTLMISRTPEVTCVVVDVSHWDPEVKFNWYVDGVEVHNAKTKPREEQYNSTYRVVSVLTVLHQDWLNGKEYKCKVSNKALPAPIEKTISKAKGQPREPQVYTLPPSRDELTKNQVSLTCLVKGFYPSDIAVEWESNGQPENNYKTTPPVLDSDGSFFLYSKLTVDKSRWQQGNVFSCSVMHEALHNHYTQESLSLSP
light: B1 light
notes: also called Ho Ab E269_20W
B8: GpH7-A5/GpH7-B3 variant K334_14T/GpL16-k0 (antibody, human IgG1, kappa)
heavy 1: not shown
heavy 2: not shown
light: B1 light
notes: also called He Ab K334_14T
B9: GpH7-A5/GpH7-B3 variant K334_03V/GpL16-k0 (antibody, human IgG1, kappa)
heavy 1: not shown
heavy 2: not shown
light: B1 light
notes: also called He Ab K334_03V
B10: GpH7-B3 variant A327_03V/GpL16-k0 (antibody, human IgG1, kappa)
heavy: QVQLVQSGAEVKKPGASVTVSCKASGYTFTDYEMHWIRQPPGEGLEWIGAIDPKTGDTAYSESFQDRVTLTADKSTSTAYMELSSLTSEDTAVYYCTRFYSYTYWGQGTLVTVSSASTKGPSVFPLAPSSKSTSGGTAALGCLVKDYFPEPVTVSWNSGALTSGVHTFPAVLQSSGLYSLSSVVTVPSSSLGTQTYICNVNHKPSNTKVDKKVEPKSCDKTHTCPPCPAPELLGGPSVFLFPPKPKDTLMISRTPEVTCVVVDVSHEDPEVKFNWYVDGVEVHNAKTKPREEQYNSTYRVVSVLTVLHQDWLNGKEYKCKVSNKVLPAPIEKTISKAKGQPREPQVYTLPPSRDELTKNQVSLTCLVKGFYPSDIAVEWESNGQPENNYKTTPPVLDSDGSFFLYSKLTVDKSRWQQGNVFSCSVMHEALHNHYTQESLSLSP
light: B1 light
notes: also called Ho Ab A327_03V
B11: GpH7-B3 variant A330_08L/GpL16-k0 (antibody, human IgG1, kappa)
heavy: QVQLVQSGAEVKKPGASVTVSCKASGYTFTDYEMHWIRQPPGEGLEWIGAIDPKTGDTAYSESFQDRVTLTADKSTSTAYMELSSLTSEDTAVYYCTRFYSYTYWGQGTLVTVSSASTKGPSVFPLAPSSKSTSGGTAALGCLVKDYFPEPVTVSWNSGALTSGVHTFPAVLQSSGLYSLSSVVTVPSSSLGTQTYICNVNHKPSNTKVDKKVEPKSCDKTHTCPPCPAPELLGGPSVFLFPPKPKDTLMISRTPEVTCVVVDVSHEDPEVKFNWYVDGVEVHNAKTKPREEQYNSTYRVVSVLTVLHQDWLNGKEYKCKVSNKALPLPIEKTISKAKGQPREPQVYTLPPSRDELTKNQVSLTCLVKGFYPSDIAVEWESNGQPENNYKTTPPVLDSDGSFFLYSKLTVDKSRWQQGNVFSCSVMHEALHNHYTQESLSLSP
light: B1 light
notes: also called Ho Ab A330_08L
B12: GpH7-B3 variant A330_16H/GpL16-k0 (antibody, human IgG1, kappa)
heavy: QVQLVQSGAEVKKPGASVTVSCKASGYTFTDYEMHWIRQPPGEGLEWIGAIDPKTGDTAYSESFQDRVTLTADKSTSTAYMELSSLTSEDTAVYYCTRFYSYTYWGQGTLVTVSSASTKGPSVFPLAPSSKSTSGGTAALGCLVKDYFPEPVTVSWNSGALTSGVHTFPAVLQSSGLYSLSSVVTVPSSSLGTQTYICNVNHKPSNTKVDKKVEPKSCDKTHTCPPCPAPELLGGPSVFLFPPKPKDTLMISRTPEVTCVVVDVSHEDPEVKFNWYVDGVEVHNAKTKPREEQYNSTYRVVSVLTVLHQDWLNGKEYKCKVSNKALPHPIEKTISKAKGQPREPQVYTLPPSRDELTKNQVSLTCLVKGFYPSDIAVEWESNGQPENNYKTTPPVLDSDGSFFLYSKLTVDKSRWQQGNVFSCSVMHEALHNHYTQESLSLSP
light: B1 light
notes: also called Ho Ab A330_16H
B13: GpH7-B3 variant E269_05P/GpL16-k0 (antibody, human IgG1, kappa)
heavy: not shown
light: B1 light
notes: also called Ho Ab E269_05P
B14: GpH7-A5/GpH7-B3 variant K334_10E/GpL16-k0 (antibody, human IgG1, kappa)
heavy 1: not shown
heavy 2: not shown
light: B1 light
notes: also called He Ab K334_10E
B15: GpH7-A5/GpH7-B3 variant Q295_14T/GpL16-k0 (antibody, human IgG1, kappa)
heavy 1: not shown
heavy 2: not shown
light: B1 light
notes: also called He Ab Q295_14T
B16: GpH7-A5/GpH7-B3 variant S267_09D/GpL16-k0 (antibody, human IgG1, kappa)
heavy 1: not shown
heavy 2: not shown
light: B1 light
notes: also called He Ab S267_09D
B17: GpH7-A5/GpH7-B3 variant K326_19Q/GpL16-k0 (antibody, human IgG1, kappa)
heavy 1: not shown
heavy 2: not shown
light: B1 light
notes: also called He Ab K326_19Q
B18: GpH7-B3 variant E269_08L/GpL16-k0 (antibody, human IgG1, kappa)
heavy: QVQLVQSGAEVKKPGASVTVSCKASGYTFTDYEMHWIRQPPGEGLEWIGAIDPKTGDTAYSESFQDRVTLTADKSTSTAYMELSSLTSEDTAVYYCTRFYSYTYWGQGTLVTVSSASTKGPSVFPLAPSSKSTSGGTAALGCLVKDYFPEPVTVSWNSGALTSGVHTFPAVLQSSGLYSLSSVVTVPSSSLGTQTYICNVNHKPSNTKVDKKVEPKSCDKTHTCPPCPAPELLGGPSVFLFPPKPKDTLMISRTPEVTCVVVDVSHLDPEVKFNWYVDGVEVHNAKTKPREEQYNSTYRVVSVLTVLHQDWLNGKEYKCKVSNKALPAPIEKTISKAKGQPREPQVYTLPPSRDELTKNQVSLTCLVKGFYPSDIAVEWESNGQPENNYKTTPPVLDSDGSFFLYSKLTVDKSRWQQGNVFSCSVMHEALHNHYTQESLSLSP
light: B1 light
notes: also called Ho Ab E269_08L
B19: GpH7-A5/GpH7-B3 variant S337_10E/GpL16-k0 (antibody, human IgG1, kappa)
heavy 1: not shown
heavy 2: not shown
light: B1 light
notes: also called He Ab S337_10E
B20: GpH7-A5/GpH7-B3 variant T335_07I/GpL16-k0 (antibody, human IgG1, kappa)
heavy 1: not shown
heavy 2: not shown
light: B1 light
notes: also called He Ab T335_07I
B21: GpH7-A5/GpH7-B3 variant S267_02A/GpL16-k0 (antibody, human IgG1, kappa)
heavy 1: not shown
heavy 2: not shown
light: B1 light
notes: also called He Ab S267_02A
B22: GpH7-B3 variant A327_07I/GpL16-k0 (antibody, human IgG1, kappa)
heavy: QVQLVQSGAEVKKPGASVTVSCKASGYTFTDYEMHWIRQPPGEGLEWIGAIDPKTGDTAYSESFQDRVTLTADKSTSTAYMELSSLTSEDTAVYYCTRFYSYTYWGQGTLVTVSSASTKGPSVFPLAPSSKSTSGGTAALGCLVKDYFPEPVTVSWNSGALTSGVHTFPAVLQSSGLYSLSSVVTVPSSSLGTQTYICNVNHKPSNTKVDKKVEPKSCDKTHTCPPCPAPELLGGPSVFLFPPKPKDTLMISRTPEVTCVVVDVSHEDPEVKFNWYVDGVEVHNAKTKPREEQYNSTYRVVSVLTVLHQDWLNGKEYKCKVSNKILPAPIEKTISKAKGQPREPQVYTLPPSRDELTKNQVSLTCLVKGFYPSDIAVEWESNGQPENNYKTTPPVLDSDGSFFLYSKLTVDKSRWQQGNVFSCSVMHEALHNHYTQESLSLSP
light: B1 light
notes: also called Ho Ab A327_07I
B23: GpH7-A5/GpH7-B3 variant Q295_02A/GpL16-k0 (antibody, human IgG1, kappa)
heavy 1: not shown
heavy 2: not shown
light: B1 light
notes: also called He Ab Q295_02A
B24: GpH7-B3 variant E269_03V/GpL16-k0 (antibody, human IgG1, kappa)
heavy: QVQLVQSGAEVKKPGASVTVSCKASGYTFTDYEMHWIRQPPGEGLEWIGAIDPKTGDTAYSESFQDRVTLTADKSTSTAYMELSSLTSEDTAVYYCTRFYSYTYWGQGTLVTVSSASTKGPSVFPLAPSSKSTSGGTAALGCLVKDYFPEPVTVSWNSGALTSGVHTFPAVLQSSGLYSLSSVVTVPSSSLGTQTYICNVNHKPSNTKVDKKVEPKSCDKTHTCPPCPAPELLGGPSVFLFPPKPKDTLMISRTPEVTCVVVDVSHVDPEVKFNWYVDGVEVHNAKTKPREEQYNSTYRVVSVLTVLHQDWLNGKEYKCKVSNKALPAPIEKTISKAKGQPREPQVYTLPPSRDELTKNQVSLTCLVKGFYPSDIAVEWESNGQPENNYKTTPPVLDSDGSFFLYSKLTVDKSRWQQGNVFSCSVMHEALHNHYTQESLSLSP
light: B1 light
notes: also called Ho Ab E269_03V
B25: GpH7-B3 variant E269_14T/GpL16-k0 (antibody, human IgG1, kappa)
heavy: not shown
light: B1 light
notes: also called Ho Ab E269_14T
B26: GpH7-A5/GpH7-B3 variant S239_09D/GpL16-k0 (antibody, human IgG1, kappa)
heavy 1: not shown
heavy 2: not shown
light: B1 light
notes: also called He Ab S239_09D
B27: GpH7-B3 variant E269_06M/GpL16-k0 (antibody, human IgG1, kappa)
heavy: not shown
light: B1 light
notes: also called Ho Ab E269_06M
B28: GpH7-B3 variant A330_14T/GpL16-k0 (antibody, human IgG1, kappa)
heavy: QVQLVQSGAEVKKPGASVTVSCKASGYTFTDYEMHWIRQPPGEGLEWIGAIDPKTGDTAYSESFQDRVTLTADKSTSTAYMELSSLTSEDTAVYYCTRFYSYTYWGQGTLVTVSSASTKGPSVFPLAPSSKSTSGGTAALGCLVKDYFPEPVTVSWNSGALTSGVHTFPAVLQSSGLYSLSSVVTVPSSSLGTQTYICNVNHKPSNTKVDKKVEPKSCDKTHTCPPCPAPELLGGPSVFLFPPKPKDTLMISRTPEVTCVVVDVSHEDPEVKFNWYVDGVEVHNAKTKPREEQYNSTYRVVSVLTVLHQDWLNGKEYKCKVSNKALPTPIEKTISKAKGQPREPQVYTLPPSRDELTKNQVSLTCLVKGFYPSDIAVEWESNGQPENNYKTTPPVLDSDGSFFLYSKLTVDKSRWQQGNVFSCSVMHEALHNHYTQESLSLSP
light: B1 light
notes: also called Ho Ab A330_14T

Assays:
[1] = target: T1, FcγRIIIa extracellular domain with C-terminal His tag (human, UniProt P08637 17-208); assay: SPR Biacore, captured antibody, FcγR analyte, relative binding
T1 construct: extracellular domain; also called FcgRIIIa; 3a; not shown: His tag attached to the C terminus
Procedure, shortened: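 Antibodies were captured on antigen-peptide chips (amine-coupled to CM5, or biotinylated peptide on SA), then FcγR diluted in HBS-EP+ running buffer was injected as analyte at 25° C. Chips were regenerated with 10 mM glycine-HCl, pH 1.5 between cycles.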

FcγRIa = target: T2, FcγRIa (human, UniProt P12314 16-292); assay: SPR (Biacore); Ho Ab relative to HoCon Ab = 100
T2 construct: extracellular domain; also called FcgRI; 1a
Procedure: Analysis of interaction between objective antibody and the FcγR was carried out using Biacore T100 (GE Healthcare). HBS-EP+ (GE Healthcare) was used as the running buffer, and the measurement temperature was set to 25° C. Chips produced by immobilizing the antigen peptide by the amine coupling method to a Series S Sencor Chip CM5 (GE Healthcare), or alternatively, chips produced by allowing preliminarily biotinylated antigen peptides to interact with and immobilize onto a Series S Sensor Chip SA (certified) (GE Healthcare) were used. Antibodies of interest were captured onto an antigen peptide-immobilized chip, and allowed to interact to each FcγR diluted with running buffer. To regenerate and repeatedly use the chip, the antibodies captured on the chip were washed off by reacting 10 mM glycine-HCl, pH 1.5.

T2 sequence (P12314 16-292): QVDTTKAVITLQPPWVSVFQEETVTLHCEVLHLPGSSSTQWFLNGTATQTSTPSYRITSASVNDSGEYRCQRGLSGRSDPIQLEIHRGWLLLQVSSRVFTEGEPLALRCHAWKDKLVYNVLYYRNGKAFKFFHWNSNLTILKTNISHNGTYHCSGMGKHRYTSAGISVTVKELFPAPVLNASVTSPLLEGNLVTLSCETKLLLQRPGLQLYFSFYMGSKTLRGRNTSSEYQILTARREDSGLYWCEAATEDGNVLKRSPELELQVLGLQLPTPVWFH
T1 sequence (P08637 17-208): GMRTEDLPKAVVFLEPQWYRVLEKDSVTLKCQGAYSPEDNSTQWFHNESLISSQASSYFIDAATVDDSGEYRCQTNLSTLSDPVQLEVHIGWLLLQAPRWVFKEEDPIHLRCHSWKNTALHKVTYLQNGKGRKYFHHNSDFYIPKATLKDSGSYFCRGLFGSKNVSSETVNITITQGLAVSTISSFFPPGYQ

Row | Binder | He/Con_3a [1] | Ho/Con_1a (FcγRIa)
1 | B1 | 100 % of HeCon Ab GpH7-A5/GpH7-B3/GpL16-k0 (=100) | 
2 | B2 |  | 108 % of control
3 | B3 | 160 % of HeCon Ab GpH7-A5/GpH7-B3/GpL16-k0 (=100) | 
4 | B4 | 107 % of HeCon Ab GpH7-A5/GpH7-B3/GpL16-k0 (=100) | 
5 | B5 |  | 98.4 % of control
6 | B6 | 145 % of HeCon Ab GpH7-A5/GpH7-B3/GpL16-k0 (=100) | 
7 | B7 |  | 98.9 % of control
8 | B8 | 141 % of HeCon Ab GpH7-A5/GpH7-B3/GpL16-k0 (=100) | 
9 | B9 | 150 % of HeCon Ab GpH7-A5/GpH7-B3/GpL16-k0 (=100) | 
10 | B10 |  | 94.4 % of control
11 | B11 |  | 106 % of control
12 | B12 |  | 104 % of control
13 | B13 |  | 95.7 % of control
14 | B14 | 181 % of HeCon Ab GpH7-A5/GpH7-B3/GpL16-k0 (=100) | 
15 | B15 | 115 % of HeCon Ab GpH7-A5/GpH7-B3/GpL16-k0 (=100) | 
16 | B16 | 181 % of HeCon Ab GpH7-A5/GpH7-B3/GpL16-k0 (=100) | 
17 | B17 | 106 % of HeCon Ab GpH7-A5/GpH7-B3/GpL16-k0 (=100) | 
18 | B18 |  | 101 % of control
19 | B19 | 105 % of HeCon Ab GpH7-A5/GpH7-B3/GpL16-k0 (=100) | 
20 | B20 | 107 % of HeCon Ab GpH7-A5/GpH7-B3/GpL16-k0 (=100) | 
21 | B21 | 150 % of HeCon Ab GpH7-A5/GpH7-B3/GpL16-k0 (=100) | 
22 | B22 |  | 95.5 % of control
23 | B23 | 106 % of HeCon Ab GpH7-A5/GpH7-B3/GpL16-k0 (=100) | 
24 | B24 |  | 95.4 % of control
25 | B25 |  | 96.2 % of control
26 | B26 | 166 % of HeCon Ab GpH7-A5/GpH7-B3/GpL16-k0 (=100) | 
27 | B27 |  | 101 % of control
28 | B28 |  | 105 % of control
